Assay results: patent publication US20240010682A1 (UNIVERSIT T BASEL, published 2024)

T1: fibrin (Fb) network formed from human fibrinogen by thrombin (human, UniProt P02671 36-629; P02675 45-491; P02679 27-437, limits assumed)
T1 construct: Human fibrinogen (FIB 3; depleted of plasminogen, fibronectin and von Willebrand Factor), spiked with 1% AlexaFluor 488-labelled fibrinogen and clotted with thrombin and CaCl2; In the imaging experiments it is a cross-linked gel, not a soluble protein; also called Fb clot; Fb fibers
T1 sequence (looked up) 1: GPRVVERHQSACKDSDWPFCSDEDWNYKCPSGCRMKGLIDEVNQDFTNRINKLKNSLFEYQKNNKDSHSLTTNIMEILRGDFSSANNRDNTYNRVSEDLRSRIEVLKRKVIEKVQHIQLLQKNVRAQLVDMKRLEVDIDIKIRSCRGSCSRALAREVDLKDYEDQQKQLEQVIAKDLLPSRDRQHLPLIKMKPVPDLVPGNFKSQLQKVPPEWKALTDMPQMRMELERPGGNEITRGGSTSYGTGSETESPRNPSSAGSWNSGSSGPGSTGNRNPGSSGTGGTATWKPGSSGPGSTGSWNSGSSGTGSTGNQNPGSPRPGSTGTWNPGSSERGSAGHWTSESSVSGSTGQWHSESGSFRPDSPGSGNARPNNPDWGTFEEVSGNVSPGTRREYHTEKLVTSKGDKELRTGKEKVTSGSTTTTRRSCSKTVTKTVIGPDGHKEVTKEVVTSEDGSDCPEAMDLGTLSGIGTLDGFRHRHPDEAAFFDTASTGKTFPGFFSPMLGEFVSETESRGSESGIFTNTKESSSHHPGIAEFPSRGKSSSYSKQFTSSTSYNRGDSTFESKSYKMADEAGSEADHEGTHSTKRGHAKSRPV
T1 sequence (looked up) 2: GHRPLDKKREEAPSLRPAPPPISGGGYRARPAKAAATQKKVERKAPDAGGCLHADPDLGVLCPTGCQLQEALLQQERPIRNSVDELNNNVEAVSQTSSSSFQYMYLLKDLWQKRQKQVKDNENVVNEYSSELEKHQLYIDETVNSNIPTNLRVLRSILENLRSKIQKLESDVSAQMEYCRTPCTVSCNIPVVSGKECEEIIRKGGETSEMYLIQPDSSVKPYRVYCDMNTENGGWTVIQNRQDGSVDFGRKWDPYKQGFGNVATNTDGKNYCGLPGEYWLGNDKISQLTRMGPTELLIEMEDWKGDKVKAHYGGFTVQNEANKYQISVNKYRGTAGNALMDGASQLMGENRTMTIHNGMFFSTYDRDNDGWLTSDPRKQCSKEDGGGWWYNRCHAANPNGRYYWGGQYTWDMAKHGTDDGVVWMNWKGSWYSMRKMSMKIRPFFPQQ
T1 sequence (looked up) 3: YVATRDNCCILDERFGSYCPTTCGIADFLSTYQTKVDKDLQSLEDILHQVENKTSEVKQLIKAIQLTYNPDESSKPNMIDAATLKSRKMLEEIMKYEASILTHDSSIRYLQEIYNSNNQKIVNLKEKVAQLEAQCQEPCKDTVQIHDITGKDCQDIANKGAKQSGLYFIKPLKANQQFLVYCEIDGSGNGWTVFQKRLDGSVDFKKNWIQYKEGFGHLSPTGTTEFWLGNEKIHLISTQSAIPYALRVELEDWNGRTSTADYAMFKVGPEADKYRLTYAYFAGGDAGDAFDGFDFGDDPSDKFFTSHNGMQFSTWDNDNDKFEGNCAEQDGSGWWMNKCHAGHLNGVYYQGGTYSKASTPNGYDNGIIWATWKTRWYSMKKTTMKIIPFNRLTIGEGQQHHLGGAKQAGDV


Assays:
[1] = target: fibrin (Fb) network formed from human fibrinogen by thrombin (human) (UniProt P02671); assay: two-colour confocal fluorescence microscopy of Fb clots formed at 22 C, Coloc2 in ImageJ
[2] = target: fibrin (Fb) network formed from human fibrinogen by thrombin (human) (UniProt P02671); assay: two-colour confocal fluorescence microscopy of Fb clots formed at 37 C, Coloc2 in ImageJ
[3] = target: T1, fibrin (Fb) network formed from human …; assay: two-colour confocal fluorescence microscopy of Fb clots formed at 22 C, colocalisation (Coloc2)
From the text: The inventors N-terminally labelled hELPs and conELPs with Atto647-N-hydroxysuccinimide (red channel) and confirmed they were still cross-linked by FXIIIa. Fluorescent-hELPs (f-hELPs) or fluorescent-conELPs (f-conELPs) were then integrated into Fb clots spiked with 1% AlexaFluor 488-labelled fibrinogen (Fg-488, green channel). The inventors used two color confocal fluorescence microscopy to characterize hELP and Fb network morphology, degree of hELP and Fb colocalization, and the influence of hELP phase transition on clot architecture. […] The inventors observed little to no fluorescence intensity in the red channel when only HEPES buffer or f-conELP were added during formation of Fb networks (FIG. 3a, left, HEPES & conELP).
To quantify hELP and Fb spatial colocalization, the inventors used Coloc2 in ImageJ to calculate Pearson's correlation coefficients (PCC) (J. Adler, I. Parmryd, Cytom. Part A 2010, 77, 733). For f-hELP-Fb clots at 22° C., a PCC between f-hELP and Fb channels of 0.69±0.1 indicated high spatial correlation. For f-conELP-Fb clots, a PCC value of 0.05±0.09 indicated no spatial correlation (FIG. 3b).

Row | Pearson's correlation coefficient (PCC) between f-hELP and Fb channels [1] | Pearson's correlation coefficient (PCC) between ELP and Fb channels [2] | binding result [3] | Binder
1 | 0.69 | 0.163 | – | fluorescent hELP (f-hELP), hELP labelled with Atto647-N-hydroxysuccinimide (protein, chain 1 pos 1: N-terminal alpha-amine preferentially labelled with Atto647-NHS dye (about 0.95 dye per ELP), written M; minor labelling of K-block lysines is possible.) MGHGVGVPGVGVPGAGVPGVGVPGVGVPGVGVPGVGVPGVGVPGVGVPGVGVPGEGVPGAGSGDQMMLPWPAVALSGVPGVGVPGVGVPGAGVPGVGVPGVGVPGVGVPGVGVPGVGVPGVGVPGVGVPGEGVPGAGSGDQMMLPWPAVALSGVPGVGVPGVGVPGAGVPGVGVPGVGVPGVGVPGVGVPGVGVPGVGVPGVGVPGEGVPGAGSGDQMMLPWPAVALSGVPGVGVPGVGVPGAGVPGVGVPGVGVPGVGVPGVGVPGVGVPGVGVPGVGVPGEGVPGAGSGDQMMLPWPAVALSGVPGVGVPGVGVPGAGVPGVGVPGVGVPGVGVPGVGVPGVGVPGVGVPGVGVPGEGVPGAGVPGVGVPGVGVPGAGVPGVGVPGVGVPGVGVPGVGVPGVGVPGVGVPGVGVPGEGVPGAGVPGVGVPGVGVPGAGVPGVGVPGVGVPGVGVPGVGVPGVGVPGVGVPGVGVPGEGVPGAGVPGVGVPGVGVPGAGVPGVGVPGVGVPGVGVPGVGVPGVGVPGVGVPGVGVPGEGVPGAGVPGVGVPGVGVPGAGVPGVGVPGVGVPGVGVPGVGVPGVGVPGVGVPGVGVPGEGVPGAGSGGSKGSSGVPGVGVPGVGVPGAGVPGVGVPGVGVPGVGVPGVGVPGVGVPGVGVPGVGVPGEGVPGAGSGGSKGSSGVPGVGVPGVGVPGAGVPGVGVPGVGVPGVGVPGVGVPGVGVPGVGVPGVGVPGEGVPGAGSGGSKGSSGVPGVGVPGVGVPGAGVPGVGVPGVGVPGVGVPGVGVPGVGVPGVGVPGVGVPGEGVPGAGSGGSKGSSGVPGWLDSLEFIA
2 | – | – | no binding (tested: 30 µM f-conELP) | fluorescent conELP (f-conELP), conELP labelled with Atto647-N-hydroxysuccinimide (other, chain 1 pos 1: N-terminal alpha-amine labelled with Atto647-NHS dye (about 0.95 dye per ELP), written M., also called f-conELPs; fluorescent-conELPs) MGHGVGVPGVGVPGAGVPGVGVPGVGVPGVGVPGVGVPGVGVPGVGVPGVGVPGEGVPGAGSGDGMMLPWPAVALSGVPGVGVPGVGVPGAGVPGVGVPGVGVPGVGVPGVGVPGVGVPGVGVPGVGVPGEGVPGAGSGDGMMLPWPAVALSGVPGVGVPGVGVPGAGVPGVGVPGVGVPGVGVPGVGVPGVGVPGVGVPGVGVPGEGVPGAGSGDGMMLPWPAVALSGVPGVGVPGVGVPGAGVPGVGVPGVGVPGVGVPGVGVPGVGVPGVGVPGVGVPGEGVPGAGSGDGMMLPWPAVALSGVPGVGVPGVGVPGAGVPGVGVPGVGVPGVGVPGVGVPGVGVPGVGVPGVGVPGEGVPGAGVPGVGVPGVGVPGAGVPGVGVPGVGVPGVGVPGVGVPGVGVPGVGVPGVGVPGEGVPGAGVPGVGVPGVGVPGAGVPGVGVPGVGVPGVGVPGVGVPGVGVPGVGVPGVGVPGEGVPGAGVPGVGVPGVGVPGAGVPGVGVPGVGVPGVGVPGVGVPGVGVPGVGVPGVGVPGEGVPGAGVPGVGVPGVGVPGAGVPGVGVPGVGVPGVGVPGVGVPGVGVPGVGVPGVGVPGEGVPGAGSGGSGGSSGVPGVGVPGVGVPGAGVPGVGVPGVGVPGVGVPGVGVPGVGVPGVGVPGVGVPGEGVPGAGSGGSGGSSGVPGVGVPGVGVPGAGVPGVGVPGVGVPGVGVPGVGVPGVGVPGVGVPGVGVPGEGVPGAGSGGSGGSSGVPGVGVPGVGVPGAGVPGVGVPGVGVPGVGVPGVGVPGVGVPGVGVPGVGVPGEGVPGAGSGGSGGSSGVPGWLDSLEFIA
